Measured values taken from publication PMC4844702, “Selective inhibition of the kinase DYRK1A by targeting its folding process” (Nature Communications, 2016).

Columns and labels:
Assay in all cases: co-IP; CDC37-nanoKAZ interaction assay: cleared lysates (HENG buffer, 50 mM HEPES-KOH pH 7.9, 150 mM NaCl, 20 mM Na2MoO4, 0.5% Triton X-100) of 293T cells added to 96-well plates coated with anti-FLAG M2, 4 °C for 3 h; luminescence of the captured CDC37-nanoKAZ normalized to the amount of captured 3xFLAG-DYRK1A; in some experiments cells were treated with FINDY or RD0392 for 24 h before lysis
Details in all cases: partners not purified
3xFLAG-DYRK1A S97A = target: T1, 3xFLAG-DYRK1A S97A (human, UniProt Q13627 1-763, S97A)
T1 construct: DYRK1A, the variant in which Ser529 corresponds to Ser520 of the other variant; As m2 with the substitution; also called S97A mutant; source: 293T cells, transiently transfected, in lysate

3xFLAG-DYRK1A K188R = target: T2, 3xFLAG-DYRK1A K188R (human, UniProt Q13627 1-763, K188R)
T2 construct: DYRK1A, the variant in which Ser529 corresponds to Ser520 of the other variant; As m2 with the substitution; also called K188R mutant; kinase-dead mutant; source: 293T cells, transiently transfected, in lysate

3xFLAG-DYRK1A Y321F = target: T3, 3xFLAG-DYRK1A Y321F (human, UniProt Q13627 1-763, Y321F)
T3 construct: DYRK1A, the variant in which Ser529 corresponds to Ser520 of the other variant; As m2 with the substitution; also called Y321F mutant; source: 293T cells, transiently transfected, in lysate

[1] = target: T4, 3xFLAG-DYRK1A Y319F/Y321F (human, UniProt Q13627 1-763, Y319F | Y321F)
T4 construct: DYRK1A, the variant in which Ser529 corresponds to Ser520 of the other variant; As m2 with the two substitutions; also called Y319F/Y321F mutant; Y321F/Y319F; source: 293T cells, transiently transfected, in lysate

B1: CDC37 fused with luciferase nanoKAZ (natural protein, UniProt Q16543 1-378, looked up)
chain: MVDYSVWDHIEVSDDEDETHPNIDTASLFRWRHQARVERMEQFQKEKEELDRGCRECKRKVAECQRKLKELEVAEGGKAELERLQAEAQQLRKEERSWEQKLEEMRKKEKSMPWNVDTLSKDGFSKSMVNTKPEKTEEDSEEVREQKHKTFVEKYEKQIKHFGMLRRWDDSQKYLSDNVHLVCEETANYLVIWCIDLEVEEKCALMEQVAHQTIVMQFILELAKSLKVDPRACFRQFFTKIKTADRQYMEGFNDELEAFKERVRGRAKLRIEKAMKEYEEEERKKRLGPGGLDPVEVYESLPEELQKCFDVKDVQMLQDAISKMDPTDAKYHMQRCIDSGLWVPNSKASEAKEGEEAGPGDPLLEAVPKTGDEKDVSV
notes: kinase-specific co-chaperone CDC37; also called CDC37-nanoKAZ; source: 293T cells stably expressing CDC37-nanoKAZ, in lysate
For B1, the “fold change of luminescence relative to intact DYRK1A” value (3xFLAG-DYRK1A S97A) was 2.2 fold, the “fold change of luminescence relative to intact DYRK1A” value (3xFLAG-DYRK1A K188R) was 54 fold and the “fold change of luminescence relative to intact DYRK1A” value (3xFLAG-DYRK1A Y321F) was 5.2 fold. The “fold change of luminescence relative to intact DYRK1A” value [1] was 6.2 fold.
